{"source": "paper PMC3604124", "about": "“Glyceraldehyde-3-Phosphate Dehydrogenase Interacts with Proapoptotic Kinase Mst1 to Promote Cardiomyocyte Apoptosis” (PLoS ONE, 2013)", "molecular_target": "T1, Myc-tagged Mst1 (UniProt Q13043 1-487)", "T1 sequence (looked up)": "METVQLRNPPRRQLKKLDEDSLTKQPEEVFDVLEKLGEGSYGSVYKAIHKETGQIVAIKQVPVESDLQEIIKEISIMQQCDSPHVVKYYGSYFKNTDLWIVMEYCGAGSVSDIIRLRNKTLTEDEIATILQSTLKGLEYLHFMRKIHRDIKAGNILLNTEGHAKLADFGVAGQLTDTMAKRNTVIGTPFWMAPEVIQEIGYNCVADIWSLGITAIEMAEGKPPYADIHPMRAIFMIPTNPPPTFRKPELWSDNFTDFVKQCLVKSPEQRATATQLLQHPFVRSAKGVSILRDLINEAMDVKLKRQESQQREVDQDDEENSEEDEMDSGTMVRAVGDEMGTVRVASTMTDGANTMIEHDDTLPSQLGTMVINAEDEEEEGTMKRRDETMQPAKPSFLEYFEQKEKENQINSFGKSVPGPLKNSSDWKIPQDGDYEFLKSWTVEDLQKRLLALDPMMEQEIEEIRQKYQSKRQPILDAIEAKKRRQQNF", "test": "cell-based or functional assay", "data": [{"binder": "FLAG-tagged GAPDH (enzyme) not shown", "values": [{"measurement": "in vitro kinase assay of Mst1 immunoprecipitated from HEK293T cells transfected with Myc-Mst1 with or without Flag-GAPDH: Mst1 autophosphorylation and MBP phosphorylation, increase with GAPDH", "value": "~2", "unit": "fold"}]}]}
